# The supplement of paper PMC10567573
# B1: EPB41L3 (parent)
# chain: SDYISEFRFAPNHTKELEDKVIEL
# Variants of: B1
# Experiment: protein stability index of a GFP-peptide fusion (GPS, HEK-293T) (PSI 1-6); higher = more stable
# Settings: c terminus: a fixed tail appended
# 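Note: lentivirally expressed fusions sorted by FACS into six bins by GFP to DsRed ratio, PSI derived from sequencing read proportions per bin multiplied by bin number.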
row,Variant,protein stability index
1,SDYISEFRFAPNHTKELEDKVAEL [I22A],3.26
2,SDYISEFRFAPNHTKELEDKVCEL [I22C],2.19
3,SDYISEFRFAPNHTKELEDIVIEL [K20I],3.7
4,SDYISEFRFAPNHTKELEDRVIEL [K20R],1.83
5,SDYISEFRFAPNHTKELEDMVIEL [K20M],1.8
6,SDYISEFRFAPNHTKELEDSVIEL [K20S],2.3
7,SDYISEFRFAPNHTKELEDFVIEL [K20F],2.31
8,SDYISEFRFAPNHTKELEDYVIEL [K20Y],1.87
9,SDYISEFRFAPNHTKELEDDVIEL [K20D],2.71
10,SDYISEFRFAPNHTKELEDEVIEL [K20E],2.48
11,SDYISEFRFAPNHTKELEDHVIEL [K20H],1.79
12,SDYISEFRFAPNHTKELEDWVIEL [K20W],1.4
13,SDYISEFRFAPNHTKELEDGVIEL [K20G],1.93
14,SDYISEFRFAPNHTKELEDLVIEL [K20L],2.28
15,SDYISEFRFAPNHTKELEDVVIEL [K20V],2.02
16,SDYISEFRFAPNHTKELEDQVIEL [K20Q],1.89
17,SDYISEFRFAPNHTKELEDTVIEL [K20T],1.68
18,SDYISEFRFAPNHTKELEDAVIEL [K20A],2.4
19,SDYISEFRFAPNHTKELEDNVIEL [K20N],1.87
20,SDYISEFRFAPNHTKELEDCVIEL [K20C],2.13
21,SDYISEFRFAPNHTKELEDPVIEL [K20P],2.2
22,SDYISEFRFAPNHTKELEDKFIEL [V21F],3.22
23,SDYISEFRFAPNHTKELEDKEIEL [V21E],2.54
24,SDYISEFRFAPNHTKELEDKYIEL [V21Y],2.14

row,Variant,protein stability index
1,SDYISEFRFAPNHTKELEDKMIEL [V21M],3.45
2,SDYISEFRFAPNHTKELEDKIIEL [V21I],2.22
3,SDYISEFRFAPNHTKELEDKRIEL [V21R],1.78
4,SDYISEFRFAPNHTKELEDKKIEL [V21K],2.15
5,SDYISEFRFAPNHTKELEDKCIEL [V21C],1.88
6,SDYISEFRFAPNHTKELEDKPIEL [V21P],1.94
7,SDYISEFRFAPNHTKELEDKDIEL [V21D],2.96
8,SDYISEFRFAPNHTKELEDKNIEL [V21N],2.38
9,SDYISEFRFAPNHTKELEDKGIEL [V21G],2.37
10,SDYISEFRFAPNHTKELEDKTIEL [V21T],2.18
11,SDYISEFRFAPNHTKELEDKWIEL [V21W],2.14
12,SDYISEFRFAPNHTKELEDKHIEL [V21H],1.85
13,SDYISEFRFAPNHTKELEDKSIEL [V21S],2.05
14,SDYISEFRFAPNHTKELEDKAIEL [V21A],2.31
15,SDYISEFRFAPNHTKELEDKLIEL [V21L],2.48
16,SDYISEFRFAPNHTKELEDKQIEL [V21Q],1.99
17,SDYISEFRFAPNHTKELERKVIEL [D19R],1.39
18,SDYISEFRFAPNHTKELELKVIEL [D19L],2.69
19,SDYISEFRFAPNHTKELEYKVIEL [D19Y],1.36
20,SDYISEFRFAPNHTKELEGKVIEL [D19G],2.06
21,SDYISEFRFAPNHTKELEIKVIEL [D19I],2.71
22,SDYISEFRFAPNHTKELEVKVIEL [D19V],2.09
23,SDYISEFRFAPNHTKELETKVIEL [D19T],1.8
24,SDYISEFRFAPNHTKELEKKVIEL [D19K],1.89

row,Variant,protein stability index
1,SDYISEFRFAPNHTKELEWKVIEL [D19W],3.08
2,SDYISEFRFAPNHTKELEAKVIEL [D19A],1.49
3,SDYISEFRFAPNHTKELECKVIEL [D19C],2.02
4,SDYISEFRFAPNHTKELEMKVIEL [D19M],2.03
5,SDYISEFRFAPNHTKELENKVIEL [D19N],1.79
6,SDYISEFRFAPNHTKELEPKVIEL [D19P],2.19
7,SDYISEFRFAPNHTKELEEKVIEL [D19E],1.77
8,SDYISEFRFAPNHTKELEQKVIEL [D19Q],1.71
9,SDYISEFRFAPNHTKELEFKVIEL [D19F],3.65
10,SDYISEFRFAPNHTKELEHKVIEL [D19H],1.86
11,SDYISEFRFAPNHTKELESKVIEL [D19S],2.81
12,SDYISEFRFAPNHTKEWEDKVIEL [L17W],1.77
13,SDYISEFRFAPNHTKEEEDKVIEL [L17E],2.32
14,SDYISEFRFAPNHTKEQEDKVIEL [L17Q],2.18
15,SDYISEFRFAPNHTKETEDKVIEL [L17T],1.98
16,SDYISEFRFAPNHTKEHEDKVIEL [L17H],1.84
17,SDYISEFRFAPNHTKESEDKVIEL [L17S],1.84
18,SDYISEFRFAPNHTKEFEDKVIEL [L17F],2.86
19,SDYISEFRFAPNHTKEGEDKVIEL [L17G],1.97
20,SDYISEFRFAPNHTKEYEDKVIEL [L17Y],2.59
21,SDYISEFRFAPNHTKEMEDKVIEL [L17M],2.47
22,SDYISEFRFAPNHTKEIEDKVIEL [L17I],2.37
23,SDYISEFRFAPNHTKEREDKVIEL [L17R],1.27
24,SDYISEFRFAPNHTKENEDKVIEL [L17N],2.17

row,Variant,protein stability index
1,SDYISEFRFAPNHTKEKEDKVIEL [L17K],2.07
2,SDYISEFRFAPNHTKEPEDKVIEL [L17P],1.96
3,SDYISEFRFAPNHTKEVEDKVIEL [L17V],2.68
4,SDYISEFRFAPNHTKELIDKVIEL [E18I],2.19
5,SDYISEFRFAPNHTKELYDKVIEL [E18Y],1.77
6,SDYISEFRFAPNHTKELPDKVIEL [E18P],1.47
7,SDYISEFRFAPNHTKELMDKVIEL [E18M],1.8
8,SDYISEFRFAPNHTKELADKVIEL [E18A],2.05
9,SDYISEFRFAPNHTKELCDKVIEL [E18C],1.44
10,SDYISEFRFAPNHTKELTDKVIEL [E18T],1.73
11,SDYISEFRFAPNHTKELGDKVIEL [E18G],2.53
12,SDYISEFRFAPNHTKELFDKVIEL [E18F],1.8
13,SDYISEFRFAPNHTKELWDKVIEL [E18W],1.56
14,SDYISEFRFAPNHTKELKDKVIEL [E18K],2.08
15,SDYISEFRFAPNHTKELVDKVIEL [E18V],2.07
16,SDYISEFRFAPNHTKELLDKVIEL [E18L],1.77
17,SDYISEFRFAPNHTKELDDKVIEL [E18D],1.49
18,SDYISEFRFAPNHTKELNDKVIEL [E18N],1.81
19,SDYISEFRFAPNHTKELHDKVIEL [E18H],2.77
20,SDYISEFRFAPNHTKELQDKVIEL [E18Q],2.42
21,SDYISEFRFAPNHTKELSDKVIEL [E18S],2.32
22,SDYISEFRFAPNHTKELRDKVIEL [E18R],2.34
